According to PMC8439657:

Experiments:
[1] = target: mTORC1 (wild-type human mTOR, RAPTOR, mLST8), Strep tag removed (human) (UniProt P42345)
[2] = target: mTORC1 (wild-type human mTOR, RAPTOR, mLST8), Strep tag removed (human) (UniProt P42345); remark: listed apart in the source
[3] = target: mTOR^ΔN-mLST8 complex (human) (UniProt P42345)
[4] = target: mTORC1 (wild-type human mTOR, RAPTOR, mLST8), Strep tag removed (human) (UniProt P42345); remark: listed apart in the source
[5] = target: Twin-Strep-tagged activated mTORC1 mutant A1459P (human) (UniProt P42345); assay: SPR; Biacore T200, CM5 chip; Twin-Strep-tagged mTORC1 captured on Strep-Tactin XT; DEPTOR PDZ (305-409) injected 120 s, 300 s dissociation, 1:2 dilution series from 20 µM; 50 mM HEPES pH 7.5, 100 mM NaCl, 1 mM TCEP; equilibrium responses fit to one-site specific binding with a linear non-specific component
[6] = target: Twin-Strep-tagged wild-type mTORC1 (human) (UniProt P42345); assay: as above

Substance | IC50 of inhibition of mTORC1 phosphorylation of the TOS-less 4EBP1 mutant, against wild-type 4EBP1 [1] [fold] | IC50 of inhibition of mTORC1 kinase activity, phosphorylation of GST-S6K1 367-404 peptide (western blot, p-S6K1 Thr389) [2] [µM] | IC50 of inhibition of mTORC1 kinase activity, phosphorylation of wild-type 4EBP1 (western blot, p-4EBP1 Thr37/46) [2] [µM] | IC50 of inhibition of the kinase activity of monomeric mTOR^ΔN-mLST8 [3] [µM] | fold decrease of the IC50 of DEPTOR inhibition of 4EBP1 phosphorylation in the presence of RHEB-GTP, against mTORC1 alone [4] [fold] | Kd [5] [µM] | Kd [6] [µM]
DEPTOR (DEP-domain containing mTOR-interacting protein), full length, residues 1-409 (from UniProt Q8TB45 1-409) (natural protein) | 2 | 51 | 14 | 0.4 | 400 | – | –
DEPTOR short-linker PDZ, residues 305-409 (from UniProt Q8TB45 305-409) (domain or fragment) | – | – | – | – | – | 0.6 | 7
